Experimental data taken from publication doi:10.1101/201277 (bioRxiv, 2017).
Where two headings read alike, the source gives them in different places.

B1: aceB operator (BLI) (dsDNA)
DNA 1: ATGCATGTTGTGTGGGCTGAATCGCTTAACGTCACACAGGTGTCC
DNA 2: GGACACCTGTGTGACGTTAAGCGATTCAGCCCACACAACATGCAT
B2: pfkA operator (BLI) (dsDNA)
DNA 1: ATGCATGTTGTGTGGCCTGAATCAATTCAGCTCACACAGGTGTCC
DNA 2: GGACACCTGTGTGAGCTGAATTGATTCAGGCCACACAACATGCAT
B3: aceB operator (filter binding) (dsDNA)
DNA 1: TGTTGTGTGGGCTGAATCGCTTAACGTCACACAGG
DNA 2: CCTGTGTGACGTTAAGCGATTCAGCCCACACAACA
B4: fruB proximal operator (BLI) (dsDNA)
DNA 1: ATGCATGTTGTGTGGTTCTTGAAACGTTTCAGCTCACACAGGTCC
DNA 2: GGACCTGTGTGAGCTGAAACGTTTCAAGAACCACACAACATGCAT
B5: catabolite repressor activator protein (Cra), wild-type (natural protein, E. coli, UniProt P0ACP1 1-334, looked up)
chain: MKLDEIARLAGVSRTTASYVINGKAKQYRVSDKTVEKVMAVVREHNYHPNAVAAGLRAGRTRSIGLVIPDLENTSYTRIANYLERQARQRGYQLLIACSEDQPDNEMRCIEHLLQRQVDAIIVSTSLPPEHPFYQRWANDPFPIVALDRALDREHFTSVVGADQDDAEMLAEELRKFPAETVLYLGALPELSVSFLREQGFRTAWKDDPREVHFLYANSYEREAAAQLFEKWLETHPMPQALFTTSFALLQGVMDVTLRRDGKLPSDLAIATFGDNELLDFLQCPVLAVAQRHRDVAERVLEIVLASLDEPRKPKPGLTRIKRNLYRRGVLSRS
B6: fructose-1-kinase (FruK), recombinant, separately purified (enzyme, E. coli, UniProt P0AEW9 1-312, looked up)
chain: MSRRVATITLNPAYDLVGFCPEIERGEVNLVKTTGLHAAGKGINVAKVLKDLGIDVTVGGFLGKDNQDGFQQLFSELGIANRFQVVQGRTRINVKLTEKDGEVTDFNFSGFEVTPADWERFVTDSLSWLGQFDMVCVSGSLPSGVSPEAFTDWMTRLRSQCPCIIFDSSREALVAGLKAAPWLVKPNRRELEIWAGRKLPEMKDVIEAAHALREQGIAHVVISLGAEGALWVNASGEWIAKPPSVDVVSTVGAGDSMVGGLIYGLLMRESSEHTLRLATAVAALAVSQSNVGITDRPQLAAMMARVDLQPFN
B7: fruB proximal operator (filter binding) (dsDNA)
DNA 1: TGTTGTGTGGTTCTTGAAACGTTTCAGCTCACACAGG
DNA 2: CCTGTGTGAGCTGAAACGTTTCAAGAACCACACAACA
B8: fruB distal operator (filter binding) (dsDNA)
DNA 1: TGTTGTGTGGGAGGCTGAATCGTTTCAATCACACAGG
DNA 2: CCTGTGTGATTGAAACGATTCAGCCTCCCACACAACA

Legend:
[1] = biological target: T1, Cra (FruR);FruK (fructose-1-kinase, 1-phosphofructokinase) (Escherichia coli strain 3.300 …, UniProt P0ACP1;P0AEW9 1-334;1-312, |); experiment: BLI
Cra (FruR) [2] = biological target: T2, Cra (FruR) (Escherichia coli strain 3.300 …, UniProt P0ACP1 1-334); experiment: BLI
[3] = biological target: T1, Cra (FruR);FruK (fructose-1-kinase, …); experiment: BLI; remark: listed apart in the source
Cra (FruR) [4] = biological target: T2, Cra (FruR); experiment: filter binding
[5] = biological target: T1, Cra (FruR);FruK (fructose-1-kinase, …); experiment: BLI; remark: listed apart in the source
[6] = biological target: the molecule itself; experiment: elution from a phosphocellulose column
[7] = biological target: B5; experiment: pull-down

| Binder | binding result (Cra (FruR) [2]) | Kd (Cra (FruR) [4]) | further results |
| --- | --- | --- | --- |
| B1 | binds | – | binding result [1]: binds |
| B2 | binds | – | binding result [3]: binds |
| B3 | – | 1.7 nM | – |
| B4 | binds | – | binding result [5]: binds |
| B5 | – | – | stoichiometry N [6]: 2 |
| B6 | – | – | Kd [7]: < 100 nM |
| B7 | – | 0.018 nM | – |
| B8 | – | 0.018 nM | – |
